The values that follow are results of earlier work, collected in article PMC5757840.

The target of the data set is SNARE complex (Rattus norvegicus) (UniProt P32851).
Sequence of UniProt P32851 (P32851 whole entry, chain 1 of 3): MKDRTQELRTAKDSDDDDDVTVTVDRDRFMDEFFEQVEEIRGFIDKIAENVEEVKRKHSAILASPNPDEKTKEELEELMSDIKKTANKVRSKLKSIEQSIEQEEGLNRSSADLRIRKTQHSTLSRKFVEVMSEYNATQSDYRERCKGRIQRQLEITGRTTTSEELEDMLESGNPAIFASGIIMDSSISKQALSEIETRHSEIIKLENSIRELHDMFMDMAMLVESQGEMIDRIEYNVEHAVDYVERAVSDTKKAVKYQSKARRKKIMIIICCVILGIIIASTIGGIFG
Sequence of UniProt P32851 (B2RAU4 whole entry, chain 2 of 3, further chain): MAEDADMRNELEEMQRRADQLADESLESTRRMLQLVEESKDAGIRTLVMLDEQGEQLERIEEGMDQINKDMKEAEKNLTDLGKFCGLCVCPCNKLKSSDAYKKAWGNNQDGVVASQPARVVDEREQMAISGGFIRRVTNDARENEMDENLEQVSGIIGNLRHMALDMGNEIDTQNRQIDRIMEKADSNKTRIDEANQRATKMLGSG
Sequence of UniProt P32851 (P63044 2-116, chain 3 of 3, further chain): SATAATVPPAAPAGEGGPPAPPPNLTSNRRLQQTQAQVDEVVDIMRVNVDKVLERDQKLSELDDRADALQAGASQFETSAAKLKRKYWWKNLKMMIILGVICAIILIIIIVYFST

As usually defined, the Kd is the free concentration of one partner at which half of the binding sites on the other are occupied at equilibrium, for simple one-to-one binding. On to Syt1 (from UniProt P21707), for which the Kd is 0.9 µM.
